# Laboratory results from patent US20150252074A1, “Antagonist for (Pro)Renin Receptor for the Treatment of Hypertension and Diabetes” (priority 2012, published 2015).
# Entries after “also recorded” stand apart in the source; their conditions may differ. Where no end group is shown, it is not given here.
# B1: PR20 peptide labeled with FITC (peptide)
# peptide: LPTDTTTFKRIFLKRMPSI
# modifications: also: FITC label, site not given here
# notes: also called PR20 antagonist peptide
# B2: mouse prorenin: activating ligand of PRR, infused ICV to induce a pressor response (protein)
# chain: LPTRTATFERIPLKKMPSVREILEERGVDMTRLSAEWGVFTKRPSLTNLTSPVVLTNYLNTQYYGEIGIGTPPQTFKVIFDTGSANLWVPSTKCSRLYLACGIHSLYESSDSSSYMENGSDFTIHYGSGRVKGFLSQDSVTVGGITVTQTFGEVTELPLIPFMLAKFDGVLGMGFPAQAVGGVTPVFDHILSQGVLKEEVFSVYYNRGSHLLGGEVVLGGSDPQHYQGNFHYVSISKTDSWQITMKGVSVGSSTLLCEEGCAVVVDTGSSFISAPTSSLKLIMQALGAKEKRIEEYVVNCSQVPTLPDISFDLGGRAYTLSSTDYVLQYPNRRDKLCTLALHAMDIPPPTGPVWVLGATFIRKFYTEFDRHNNRIGFALAR
# B3: mouse renin: mouse renin protein infused ICV to induce a pressor response (protein, UniProt P06281 72-402, looked up)
# Renin-1: SPVVLTNYLNTQYYGEIGIGTPPQTFKVIFDTGSANLWVPSTKCSRLYLACGIHSLYESSDSSSYMENGSDFTIHYGSGRVKGFLSQDSVTVGGITVTQTFGEVTELPLIPFMLAKFDGVLGMGFPAQAVGGVTPVFDHILSQGVLKEEVFSVYYNRGSHLLGGEVVLGGSDPQHYQGNFHYVSISKTDSWQITMKGVSVGSSTLLCEEGCAVVVDTGSSFISAPTSSLKLIMQALGAKEKRIEEYVVNCSQVPTLPDISFDLGGRAYTLSSTDYVLQYPNRRDKLCTLALHAMDIPPPTGPVWVLGATFIRKFYTEFDRHNNRIGFALAR
# Columns and labels:
# [1] = test system: Ang II type 1 receptor (AT1R); assay: ICV losartan blockade of the pressor response induced by prorenin or renin; assay type: in vivo, mice; conditions: losartan 10 ug/ul ICV at 0.3 ul/minute for 10 minutes
# [2] = target: T1, (pro)renin receptor (PRR) (Mus musculus, UniProt Q9CYN9); assay: ICV infusion of PRR antagonist peptides against the prorenin-induced pressor response, telemetric BP recording; assay type: in vivo, C57BI/6J mice; conditions: for effect on prorenin (ICV) induced pressor response (in words): ICV administration, C57BI/6J mice; for ΔMAP (prorenin-induced pressor response in peptide-infused mice): ICV infusion, peptide 45 ng/u1, mouse prorenin 100 ng/ul, vs. prorenin, N=5/group
# T1 construct: intracerebroventricular (ICV) cannula for infusion of mouse prorenin (100 ng/ul), PR10, or PR20; from tissue; host or cells: brain of conscious C57Bl/6J mice (in vivo, ICV infusion)
# Procedure: C57BI/6J mice (N=5/group) were each implanted with a telemetric probe for BP recording and an intracerebroventricular (ICV) cannula for infusion of mouse prorenin (100 ng/ul), PR10, or PR20 (45 ng/u1) at 0.3 ul/minute for 10 minutes. Mouse prorenin infusion increased the BP (mmHg) in WT mice (ΔMAP: 31.3±1.1); however, the prorenin-induced pressor response was abolished in either PR10 (ΔMAP: 16.9±4.4 vs. prorenin) or PR20 (ΔMAP: 12.7±0.5 vs. prorenin) infused mice.
# [3] = target: (pro)renin receptor (PRR) in mouse brain sections (mouse) (UniProt Q9CYN9); assay: cell-based or functional assay
# [4] = target: T2, (pro)renin receptor (PRR) in mouse brain sections (mouse, UniProt Q9CYN9 18-350); assay: FITC-labelled peptide, fluorescence microscopy on mouse brain sections
# T2 construct: whole, on cells; Endogenous receptor in mouse brain tissue, not a recombinant construct
# Procedure: In order to determine which residues of the PR20 antagonist peptide are involved in binding PRR, an alanine replacement assay was performed. A series of peptides comprising a single alanine substitution at each of the 19 amino acid positions were generated. Each of the 19 alanine substituted peptides and the PR20 peptide were labeled with FITC. Using fluorescent microscopy, each peptide was examined for binding to PRR in mouse brain sections.
# Nefh-PRR mice = assay: Pressor response to ICV infusion of mouse prorenin or mouse renin in neuron-specific PRR knockout mice (Nefh-PRR); assay type: in vivo; conditions: 100 ng/ul at 0.3 ul/minute for 10 minutes ICV, N=5/group
# Procedure: (§1) FIG. 6 is a series of graphs illustrating the pressor response to intracerebroventricular (ICV) infusion of carbachol (FIG. 6A), Ang II (FIG. 6B), renin (FIG. 6C), and prorenin (FIG. 6D) in wild-type (WT) and Nefh-PRR mice. WT and Nefh-PRR mice were implanted with telemetric transmitters and ICV cannula. Two weeks after recovery, mice were ICV infused (0.3μl/min) with carbachol (100 ng/μl), Ang II (100 ng/μl), Ang II (100 ng/μl)+losartan (10 μg/μl), mouse renin (100 ng/μl), mouse prorenin (100 ng/μl), or mouse prorenin (100 ng/μl)+losartan (10 μg/μl) over 10 minutes. Blood pressure (BP) was recorded in conscious freely moving mice. *P<0.05 vs. WT.
# (§2) Neuron-specific PRR knockout mice (Nefh-PRR) and wildtype (WT) littermates (N=5/group) were each implanted with a telemetric probe for blood pressure (BP) recording and an intracerebroventricular (ICV) cannula for infusion of mouse prorenin (100 ng/ul), mouse renin (100 ng/ul), or an Ang II type 1 receptor (AT1R) blocker (losartan, 10 ug/ul) at 0.3 ul/minute for 10 minutes. Mouse prorenin infusion increased the BP (mmHg) in WT mice (ΔMAP: 41±5); however, the prorenin induced pressor response was abolished in Nefh-PRR mice (ΔMAP: 5±1).
# WT mice = assay: Pressor response to ICV infusion of mouse prorenin or mouse renin in wildtype (WT) mice, telemetric BP recording; assay type: in vivo; conditions: 100 ng/ul at 0.3 ul/minute for 10 minutes ICV, N=5/group
# Procedure: as §1, §2
# T1 sequence (Q9CYN9 18-350): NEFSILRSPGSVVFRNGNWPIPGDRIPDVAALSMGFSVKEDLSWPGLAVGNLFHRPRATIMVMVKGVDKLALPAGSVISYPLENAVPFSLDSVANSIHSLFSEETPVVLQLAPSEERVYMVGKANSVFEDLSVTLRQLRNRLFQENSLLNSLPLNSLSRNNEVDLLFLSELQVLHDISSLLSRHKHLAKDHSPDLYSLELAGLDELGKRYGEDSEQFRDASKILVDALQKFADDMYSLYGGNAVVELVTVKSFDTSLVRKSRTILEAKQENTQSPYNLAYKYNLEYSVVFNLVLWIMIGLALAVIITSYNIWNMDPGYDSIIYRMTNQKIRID
# Sequence of (pro)renin receptor (PRR) in mouse brain sections (mouse) (Q9CYN9 18-350): as above
# T2 sequence (Q9CYN9 18-350): as above
molecule,measurement,setting,value
CCCCc1nc(Cl)c(CO)n1Cc1ccc(-c2ccccc2-c2nn[nH]n2)cc1 [losartan],effect on pressor response induced by prorenin or renin (in words),[1],completely blocked
IFDNIISQGVLKEDVF (PRR antagonist peptide (PR10)),effect on prorenin (ICV) induced pressor response (in words),[2],abolished; also recorded: significantly reduced
same,ΔMAP (prorenin-induced pressor response in peptide-infused mice),[2]; 0.3 ul/minute for 10 minutes,16.9±4.4 mmHg
LPTDTTTFKRIFLKRMPSI (PRR antagonist peptide (PR20)),effect on prorenin (ICV) induced pressor response (in words),[2],abolished; also recorded: significantly reduced
same,ΔMAP (prorenin-induced pressor response in peptide-infused mice),[2]; 0.3 ul/minute for 10 minutes,12.7±0.5 mmHg
mouse prorenin (from UniProt P06281 22-402) (ligand),pressor response to ICV mouse prorenin in WT mice (ΔMAP),[3],41 mmHg
same,pressor response to ICV mouse prorenin in neuron-specific PRR knockout (Nefh-PRR) mice (ΔMAP),[3],5 mmHg
B1,binding result,[4],binds
B2,ΔMAP (increase of BP by mouse prorenin infusion alone),"[2]; ICV mouse prorenin 100 ng/ul, 0.3 ul/minute for 10 minutes, WT (C57BI/6J) mice",31.3±1.1 mmHg
same,ΔMAP (pressor response to ICV infusion),Nefh-PRR mice,5±1 mmHg
same,ΔMAP (pressor response to ICV infusion),WT mice,41±5 mmHg
B3,ΔMAP (pressor response to ICV infusion),Nefh-PRR mice,27±2 mmHg
same,ΔMAP (pressor response to ICV infusion),WT mice,31±5 mmHg
